Measurements as given in the supplement of paper PMC12764529.
± gives the half width of the 95% confidence interval.

What was measured:
[1] = folding stability dG unfold from chymotrypsin proteolysis; higher = more stable
Procedure, shortened: (§1)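 Unfolding free energy was derived, per protease or combined, against a sequence-predicted unfolded-state K50 and a shared folded-state K50, starting from K50 inferred by Bayesian fitting of sequencing counts. Digestion with trypsin and chymotrypsin was carried out on designed mini-proteins under 80 residues without cysteine in a PA-tagged cDNA display construct. Only designs with AlphaFold2 dimer inter-PAE above 15 were kept.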

[2] = folding stability dG unfold (combined trypsin and chymotrypsin); higher = more stable
Procedure, shortened: as §1

[3] = folding stability dG unfold from trypsin proteolysis; higher = more stable
Procedure, shortened: as §1

Row | Sequence | folding stability dG unfold [1] | folding stability dG unfold [2] | folding stability dG unfold [3]
1 | SAGGGMIERYDGKIVIKLKGPNGKEWTSTTEPLPDGTARITVTHPDKVLYLEHTPEGISVVSEVSNEKSAGG [r13_619_JUSTAS] | -0.426 ± 0.45 kcal/mol | -0.411 ± 0.22 kcal/mol | -0.757 ± 0.33 kcal/mol
2 | SAGGGMMTVTVTRVEREKPAGDEYLEKVLVTLPDSTLEATLTLKEKEEADKPPSVTVVPLEAVLALLASAGG [r13_540_JUSTAS] | -0.274 ± 0.31 kcal/mol | 0.57 ± 0.11 kcal/mol | 0.927 ± 0.019 kcal/mol
3 | SAGGGMPTSIVLPLTVSPENVEEAIAALKAQLEAQGYTLLEVNPVKDGNTWKLRAVFRAPDGTLVTDESAGG [r13_421_JUSTAS] | 3.313 ± 0.017 kcal/mol | 3.26 ± 0.059 kcal/mol | 3.11 ± 0.079 kcal/mol
4 | SAGGGMRAVEVTVTLTVPSSTSVEEAVERVKAEFEAAGLEAEPVSVTVTPVPGSVTVTVRLRVLRPPASAGG [r13_351_JUSTAS] | 3.48 ± 0.049 kcal/mol | 3.19 ± 0.063 kcal/mol | 2.31 ± 0.04 kcal/mol
5 | SAGGGMSEEYVKKLFESLGFTKLETREYPGLKVTTFSAKDLTVVAYPDGTIEIFDKNGNLIKTDKGLSAGGS [r8_147_JUSTAS] | 1.82 ± 0.03 kcal/mol | 1.54 ± 0.049 kcal/mol | 1.06 ± 0.021 kcal/mol
6 | SAGGGMSGKAISEEEIEALIKEEAEKRGLKIEIKEITRPPGTVTVTVKITEGDSVTEKTIDFPILPEPSAGG [r13_652_JUSTAS] | 1.64 ± 0.054 kcal/mol | 1.59 ± 0.06 kcal/mol | 1.54 ± 0.039 kcal/mol
7 | SAGGGMTTTTVTVTLDVPPDAGEEEVERLAEEIAAELKAAHPNITVTVEKITIDEKNATFTITVTTPGSAGG [r13_805_JUSTAS] | 2.928 ± 0.029 kcal/mol | 3.03 ± 0.058 kcal/mol | 3.19 ± 0.096 kcal/mol
8 | SAGGGMTVTRTIYLPNMTEEEKKALAEEIAEEVREELEKRGYPVKEITVDVKFIPGKGIVIVTVTLKLSAGG [r13_212_JUSTAS] | 3.64 ± 0.089 kcal/mol | 3.52 ± 0.055 kcal/mol | 3.29 ± 0.09 kcal/mol
9 | SAGGGMTVVRITHPDGTPLTIEYDPNNPVATVHFADGTTETIPMPPDKTIEDLIAKLPEDAEVEVHDRSAGG [r13_696_JUSTAS] | 1.19 ± 0.026 kcal/mol | 0.847 ± 0.14 kcal/mol | 0.321 ± 0.078 kcal/mol
10 | SAGGGMVVYVTVPPDDPRVEELKERLAADPRVSDVTVEKVEEYPDTVRLRFTFPGDPAVVAAARALLSAGGS [r16_394_JUSTAS] | 1.51 ± 0.096 kcal/mol | 1.32 ± 0.053 kcal/mol | 0.995 ± 0.059 kcal/mol
11 | SAGGGPAPVVVTVEYDPETREQRVTARAGGGGVVFELSLPLGDKTVTVKVIPVGDKVLLEVEWEVKGSAGGS [r16_631_TrMRF] | 3.06 ± 0.13 kcal/mol | 2.91 ± 0.15 kcal/mol | 2.95 ± 0.16 kcal/mol
12 | SAGGGPDLPGEVEVEVEITRVEFDPETGELRVEAEATFPDGLVAKVKITFPEPGDLDKFEVEVEVEPASAGG [r13_894_TrMRF] | 1.68 ± 0.071 kcal/mol | 1.59 ± 0.035 kcal/mol | 1.5 ± 0.052 kcal/mol
13 | SAGGGPMPIDVEVLEVTPDSVRIRYPETGAVFTFDPNKEHEFTLPDGSRITVTFKPDGSVSATVTVPGSAGG [r13_352_JUSTAS] | 4.13 ± 0.13 kcal/mol | 4.16 ± 0.14 kcal/mol | 4.35 ± 0.3 kcal/mol
14 | SAGGGPMPVEKEVEITLEVDPSDPASVRARLEALAASRGVEEITEITEETLPDGSRRVTAKVKWLLPVSAGG [r13_222_JUSTAS] | 0.397 ± 0.15 kcal/mol | 0.875 ± 0.087 kcal/mol | 1.15 ± 0.067 kcal/mol
15 | SAGGGPNTYVKVTLPLPPNKADVVEEIAKLFPNVKVEVTTTPENGTLPVTFYFPSPDGSPDAKVSIFSAGGS [r8_267_TrMRF] | 1.11 ± 0.31 kcal/mol | 0.754 ± 0.15 kcal/mol | 0.407 ± 0.15 kcal/mol
16 | SAGGGQPVKITEIENIDPNNGKITFEIVDPDDGRPLKIKIPVQRRPNGKPYLQIEIEVDGKKWEIMFMSAGG [r13_993_TrROS] | 1.67 ± 0.16 kcal/mol | 1.87 ± 0.15 kcal/mol | 1.7 ± 0.17 kcal/mol
17 | SAGGGRTITVTARFTDPATGTTTTETITIDVPSDTSEEEKKEIAEKTVKEIAEKNGVKSEIESISITSAGGS [r8_312_JUSTAS] | 2.3 ± 0.17 kcal/mol | 4.32 ± 0.7 kcal/mol | 4.24 ± 0.29 kcal/mol
18 | SAGGGSMVFVEFPQGGKTVRVDVDLEKGVLRVRFPGEGAVLEYPVRDPEAVVRELTPADVPVRAYPESAGGS [r8_95_JUSTAS] | 0.405 ± 0.11 kcal/mol | 0.439 ± 0.072 kcal/mol | 0.346 ± 0.078 kcal/mol
19 | SAGGGSRTLTRGDKTYVFTTAPPPTGGRYVTLTVVDPATGAPAPVYTMDVTDGTDEEALARLLAAPLSAGGS [r16_378_JUSTAS] | 0.847 ± 0.091 kcal/mol | 0.581 ± 0.038 kcal/mol | -0.038 ± 0.11 kcal/mol
20 | SAGGGSSMPVPVRVAEFNVPDSRPEELIERAKELLEADEIDVLVVPSPAAQEALKAAFPDFPVPVLVRSAGG [r13_353_JUSTAS] | -0.339 ± 0.17 kcal/mol | -0.459 ± 0.11 kcal/mol | -0.646 ± 0.085 kcal/mol
21 | SAGGGSVPAEHLVSVSYEKPPWSDEPVITVTALKGGKPVTFTIPSSLSEEEALEAVEKAIAAGPFALGSAGG [r13_225_JUSTAS] | 0.579 ± 0.13 kcal/mol | 0.675 ± 0.099 kcal/mol | 0.638 ± 0.055 kcal/mol

Row | Sequence | folding stability dG unfold [1] | folding stability dG unfold [2] | folding stability dG unfold [3]
22 | SAGGGSVSTSVTPDPATGLVTVTVTLTRTTPTPSPGTTTTTTTITVTVQVPPSYQPTATITVSVPASLSAGG [r13_450_JUSTAS] | 3.91 ± 0.12 kcal/mol | 3.72 ± 0.082 kcal/mol | 3.49 ± 0.16 kcal/mol
23 | SAGGGTATVTTAEAELPGDVRVTTATVTLPDGSAVRVVTLSSSVPNATATVVVPLPANGPGEGVIVLPSAGG [r13_323_TrMRF] | 0.785 ± 0.056 kcal/mol | 1.15 ± 0.069 kcal/mol | 1.44 ± 0.073 kcal/mol
24 | SAGGGTEIEYNPETGEIIVKVNPLIPYPFEPGSETIPLPFEGDPEAAEQEIRDLIEEHPDASFDIKPSSAGG [r13_284_TrMRF] | -1.32 ± 0.17 kcal/mol | 0.0628 ± 0.061 kcal/mol | 0.638 ± 0.085 kcal/mol
25 | SAGGGTYYLIFKITETKTDPKTGKTTTSEKVIVDPLENPGSISAEEIAKLKEELEPKGYTVEIEIKPKSAGG [r13_926_JUSTAS] | 1.41 ± 0.27 kcal/mol | 1.07 ± 0.23 kcal/mol | 0.654 ± 0.045 kcal/mol
26 | SAGGGVEITREPDPAGGRRVRFTDPSGRTFEVEITPDSLRITRPDGTTRSAAVPPDADLRLPYSELASAGGS [r16_203_JUSTAS] | 0.418 ± 0.041 kcal/mol | 0.134 ± 0.057 kcal/mol | -0.625 ± 0.12 kcal/mol
27 | SAGGGVKFELVDIESDGDGKYIAKIKVYNENGELIEEIEIEVKGLKNVTLTIPLINKPKKIEIKVTPESAGG [r13_427_TrMRF] | 1.51 ± 0.093 kcal/mol | 1.21 ± 0.12 kcal/mol | 0.752 ± 0.03 kcal/mol
28 | SAGGGVMIAIKKIDPKNGKLEIEIWMPEGFEDPDQRKEMLEMADSLADRLQELHGIPVKVTIHPFPNSAGGS [r16_304_TrROS] | 2.27 ± 0.076 kcal/mol | 2.31 ± 0.12 kcal/mol | 2.31 ± 0.083 kcal/mol
29 | SAGGGWPWVVKFEPPDGKEMEFVIPFNPKKNWYWIKMPGNGKTVPVPLDDLEEQPGFQIDEIEPLDDLSAGG [r13_994_TrROS] | 1.31 ± 0.48 kcal/mol | 1 ± 0.27 kcal/mol | -0.0768 ± 0.33 kcal/mol
30 | SAGGIDLDNMSPEEAKERARDTVREFRELFPPEKKYKFKIKVTIDYRDPGNGRQRTVTVEAPIEFTPDSAGG [r13_385_TrROS] | 0.862 ± 0.28 kcal/mol | 0.753 ± 0.24 kcal/mol | 0.636 ± 0.12 kcal/mol
31 | SAGGIELKINIQMPAEEAVEFIRNFIEELGYEIEDIEVERDPENGMVSVPIEFEIKPVPPVDPEDQKSAGGS [r16_584_TrROS] | 0.166 ± 0.26 kcal/mol | 0.315 ± 0.19 kcal/mol | 0.144 ± 0.076 kcal/mol
32 | SAGGIELTIPLPNGMLIKIKIESIHIQPVPVWRKKKDPDGKPKDWEPQPFTFSISIRFSIEIYDPDDLSAGG [r13_848_TrROS] | 5.07 ± 0.16 kcal/mol | 4.97 ± 0.35 kcal/mol | 3.47 ± 0.2 kcal/mol
33 | SAGGIEVEAESERVEGGVLRVTVTAADPDGVPIVLELPVPPGAPEITEEEARELAVEAALKVAAELASAGGS [r8_123_TrMRF] | 0.517 ± 0.034 kcal/mol | 0.699 ± 0.053 kcal/mol | 0.887 ± 0.034 kcal/mol
34 | SAGGIKEAFEAGVEVKDVEVPVLFPDGSEAEVVEVDPVDDGVRVVLRNPVTGELFEREIPPELIEPRPSAGG [r13_340_TrMRF] | 0.172 ± 0.053 kcal/mol | 0.484 ± 0.07 kcal/mol | 0.653 ± 0.019 kcal/mol
35 | SAGGIKIHVEREGNYYRIKIKWPNNNEISIPFDSPEDAEEQAEEQLQKQFPNMPPENVKIDEIEPYPPSAGG [r13_887_TrROS] | 0.504 ± 0.15 kcal/mol | 0.469 ± 0.099 kcal/mol | 0.173 ± 0.11 kcal/mol
36 | SAGGIKIPPGQEIEMPFKVRVGGEPYPFRIEIKILKVNPDNGHFLIKMEIEDPENGQPIAEFTFFIPPSAGG [r13_582_TrROS] | 4.4 ± 0.23 kcal/mol | 3.35 ± 0.39 kcal/mol | 2.64 ± 0.25 kcal/mol
37 | SAGGIKLPPWFKKLADILQEEGYKIRIEPVNGYWVIRVDGKVYPSPEDMEDNRDDPGVDRVIVIPFPSAGGS [r16_275_TrROS] | 3.45 ± 0.12 kcal/mol | 3.26 ± 0.15 kcal/mol | 2.78 ± 0.14 kcal/mol
38 | SAGGITIEWERNPDGYPNIKIQIRAPNGKKVAKLPIQFDPNDGGMTKLDLKKLLKEINLPPNVEVEFISAGG [r13_479_TrROS] | 1.22 ± 0.13 kcal/mol | 1.34 ± 0.13 kcal/mol | 1.45 ± 0.05 kcal/mol
39 | SAGGITVEVEYERTEGGYYRVTVTLRDPDGNPIEIEYPMPPGDPGMTQDEMKDKAVEWALKIAQELNSAGGS [r8_123_TrROS] | 3.971 ± 0.031 kcal/mol | 3.96 ± 0.088 kcal/mol | 3.94 ± 0.12 kcal/mol
40 | SAGGIVAADVSPDGTVYPISPEAVRALVDAIRDRYGFDVKVTITEARYGDRWVTVIPIELTGLSPEEASAGG [r13_790_TrMRF] | 1.54 ± 0.02 kcal/mol | 1.5 ± 0.08 kcal/mol | 1.31 ± 0.04 kcal/mol
41 | SAGGIWIKVPDGGWVRIQIEHPGNGRPREETIPGGDIKDLIKSLSSSPDFPNYKVKIEVWDGGKPKPISAGG [r13_914_TrROS] | 1.71 ± 0.058 kcal/mol | 1.46 ± 0.14 kcal/mol | 0.923 ± 0.03 kcal/mol
42 | SAGGIYRVEIEIPGGNTIEFMIPGATEEMAKEIANELAQHFNPGDIKIEVYPIPPVKVDPEDGKWKWSAGGS [r8_167_TrROS] | 1.41 ± 0.1 kcal/mol | 1.13 ± 0.095 kcal/mol | 0.579 ± 0.039 kcal/mol
